The results in this text go back to patent US20090118184A1 (UNIVERSITY OF ROCHESTER, published 2009).

Changes are numbered by the printed parent chain. Names and notes keep the numbering of the source.

What all share (experiment): cell-based or functional assay
The target in assay [1] is T1, factor VIIIa A1/A3C1C2 dimer, wild type (human, UniProt P00451 20-391; P00451 1709-2351).
T1 sequence 1: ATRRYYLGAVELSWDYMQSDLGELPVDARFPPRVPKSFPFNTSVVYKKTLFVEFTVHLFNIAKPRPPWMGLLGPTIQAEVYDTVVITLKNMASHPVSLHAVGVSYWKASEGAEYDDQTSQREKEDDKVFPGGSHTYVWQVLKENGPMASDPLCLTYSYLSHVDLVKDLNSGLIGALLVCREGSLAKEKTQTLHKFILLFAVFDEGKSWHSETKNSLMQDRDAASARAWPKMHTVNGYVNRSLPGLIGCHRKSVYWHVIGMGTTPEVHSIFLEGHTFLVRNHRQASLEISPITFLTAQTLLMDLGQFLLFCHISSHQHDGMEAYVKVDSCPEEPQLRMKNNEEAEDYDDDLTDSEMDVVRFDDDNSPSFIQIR
T1 sequence 2: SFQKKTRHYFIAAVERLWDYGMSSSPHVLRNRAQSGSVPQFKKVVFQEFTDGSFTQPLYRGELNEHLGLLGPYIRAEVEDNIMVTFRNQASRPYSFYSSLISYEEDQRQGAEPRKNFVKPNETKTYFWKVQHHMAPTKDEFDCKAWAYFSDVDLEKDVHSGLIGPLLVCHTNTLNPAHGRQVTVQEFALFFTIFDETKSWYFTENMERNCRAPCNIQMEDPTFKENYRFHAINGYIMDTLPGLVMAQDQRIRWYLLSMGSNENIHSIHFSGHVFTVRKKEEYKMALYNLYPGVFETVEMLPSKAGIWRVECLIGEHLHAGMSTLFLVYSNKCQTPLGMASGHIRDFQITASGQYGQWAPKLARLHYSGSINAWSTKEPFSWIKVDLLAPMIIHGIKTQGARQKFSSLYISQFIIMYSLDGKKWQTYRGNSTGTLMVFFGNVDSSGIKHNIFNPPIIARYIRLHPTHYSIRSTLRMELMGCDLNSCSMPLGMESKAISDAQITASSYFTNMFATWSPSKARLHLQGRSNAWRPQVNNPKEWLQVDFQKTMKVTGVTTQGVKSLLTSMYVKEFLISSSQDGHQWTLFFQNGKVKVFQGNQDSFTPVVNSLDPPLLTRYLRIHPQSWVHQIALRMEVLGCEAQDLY

Assay [2] addresses T1, factor VIIIa A1/A3C1C2 dimer, wild type. This is another data set of the same source.
For assay [3], the target named is T2, factor VIIIa A1/A3C1C2 dimer, Glu1984Ala (human, UniProt P00451 20-391; P00451 1709-2351).
T2 sequence 1: T1 sequence 1
T2 sequence 2: T1 sequence 2 with E295A

The target of assay [4] is T3, factor VIIIa A1/A3C1C2 dimer, Glu1984Val (human, UniProt P00451 20-391; P00451 1709-2351).
T3 sequence 1: T1 sequence 1
T3 sequence 2: T1 sequence 2 with E295V

B1: factor VIIIa A2 subunit, S524A (other)
chain: SVAKKHPKTWVHYIAAEEEDWDYAPLVLAPDDRSYKSQYLNNGPQRIGRKYKKVRFMAYTDETFKTREAIQHESGILGPLLYGEVGDTLLIIFKNQASRPYNIYPHGITDVRPLYSRRLPKGVKHLKDFPILPGEIFKYKWTVTVEDGPTKADPRCLTRYYSSFVNMERDLASGLIGPLLICYKESVDQRGNQIMSDKRNVILFSVFDENRSWYLTENIQRFLPNPAGVQLEDPEFQASNIMHSINGYVFDSLQLSVCLHEVAYWYILSIGAQTDFLSVFFSGYTFKHKMVYEDTLTLFPFSGETVFMSMENPGLWILGCHNSDFRNRGMTALLKVSSCDKNTGDYYEDSYEDISAYLLSKNNAIEPR
As to B1, in assay [1], the “Factor VIIIa decay rate relative to wild type, FIXa (+)” value was 40.4 relative to wild type; the “Factor VIIIa decay rate relative to wild type, FIXa (-)” value is 7 relative to wild type; the “Factor VIIIa decay rate, FIXa (+)” value came to 0.455 min⁻¹; the “Factor VIIIa decay rate, FIXa (-)” value worked out at 0.442 min⁻¹.

B2: factor VIIIa A2 subunit, N538A (other)
chain: B1 chain with A152S, N166A
As for B2, in assay [1], the “Factor VIIIa decay rate relative to wild type, FIXa (+)” value was 1.28 relative to wild type and the “Factor VIIIa decay rate, FIXa (+)” value worked out at 0.0144 min⁻¹.

B3: factor VIIIa A2 subunit, D519A and E665A (other)
chain: B1 chain with D147A, A152S, E293A
B3: in assay [2], the “Decay rate relative to wild type, Factor VIIIa (1.5 nM, factor IXa absent)” value was 0.25 relative to wild type and the “Decay rate, Factor VIIIa (1.5 nM factor VIIIa, factor IXa absent)” value (from here on “Decay rate, Factor VIIIa”) came out at 0.0352 min⁻¹.

B4: factor VIIIa A2 subunit, D519V and E665V (other)
chain: B1 chain with D147V, A152S, E293V
For the molecule B4, the “Decay rate relative to wild type, Factor VIIIa (1.5 nM, factor IXa absent)” value is 0.1 relative to wild type in assay [3], 0.16 relative to wild type in assay [4] and 0.14 relative to wild type in assay [2]. Also, the figures for the “Decay rate, Factor VIIIa” value in assay [3], in assay [4] and in assay [2] were 0.0142 min⁻¹, 0.0227 min⁻¹ and 0.0198 min⁻¹, respectively.

B5: factor VIIIa A2 subunit, D696A (other)
chain: B1 chain with A152S, D324A
As for B5, in assay [1], the “Factor VIIIa decay rate relative to wild type, FIXa (+)” value was 1.05 relative to wild type and the “Factor VIIIa decay rate, FIXa (+)” value is 0.0118 min⁻¹.

B6: factor VIIIa A2 subunit, Y664F (other)
chain: B1 chain with A152S, Y292F
Consider B6, for which, in assay [1], the “Factor VIIIa decay rate relative to wild type, FIXa (+)” value is 1.31 relative to wild type and the “Factor VIIIa decay rate, FIXa (+)” value was found to be 0.0148 min⁻¹.

B7: factor VIIIa A2 subunit, T522A (other)
chain: B1 chain with T150A, A152S
For the molecule B7, in assay [1], the “Factor VIIIa decay rate relative to wild type, FIXa (+)” value is 2.39 relative to wild type and the “Factor VIIIa decay rate, FIXa (+)” value was 0.027 min⁻¹.

B8: factor VIIIa A2 subunit, Y476F (other)
chain: B1 chain with Y104F, A152S
For the molecule B8, in assay [1], the “Factor VIIIa decay rate relative to wild type, FIXa (+)” value was 1.23 relative to wild type and the “Factor VIIIa decay rate, FIXa (+)” value came to 0.0139 min⁻¹.

B9: factor VIIIa A2 subunit, E540A (other)
chain: B1 chain with A152S, E168A
Regarding B9, in assay [1], the “Factor VIIIa decay rate relative to wild type, FIXa (+)” value was 0.81 relative to wild type and the “Factor VIIIa decay rate, FIXa (+)” value is 0.0091 min⁻¹.

B10: factor VIIIa A2 subunit, E683A (other)
chain: B1 chain with A152S, E311A
With B10, in assay [1], the “Factor VIIIa decay rate relative to wild type, FIXa (+)” value is 2.33 relative to wild type and the “Factor VIIIa decay rate, FIXa (+)” value turned out to be 0.0263 min⁻¹.

B11: factor VIIIa A2 subunit, N684A (other)
chain: B1 chain with A152S, N312A
In the case of B11, in assay [1], the “Factor VIIIa decay rate relative to wild type, FIXa (+)” value was 36.3 relative to wild type; the “Factor VIIIa decay rate relative to wild type, FIXa (-)” value is 18.8 relative to wild type; the “Factor VIIIa decay rate, FIXa (+)” value came to 0.41 min⁻¹; the “Factor VIIIa decay rate, FIXa (-)” value turned out to be 1.18 min⁻¹.

B12: factor VIIIa A2 subunit, D519A and E665V (other)
chain: B1 chain with D147A, A152S, E293V
Turning to B12, in assay [3], the “Decay rate relative to wild type, Factor VIIIa (1.5 nM, factor IXa absent)” value is 0.17 relative to wild type and the “Decay rate, Factor VIIIa” value stood at 0.0235 min⁻¹. Moreover, in assay [2], the “Decay rate relative to wild type, Factor VIIIa (1.5 nM, factor IXa absent)” value was 0.16 relative to wild type and the “Decay rate, Factor VIIIa” value was 0.0222 min⁻¹.

B13: factor VIIIa A2 subunit, S695A (other)
chain: B1 chain with A152S, S323A
Take B13: in assay [1], the “Factor VIIIa decay rate relative to wild type, FIXa (+)” value is 0.75 relative to wild type and the “Factor VIIIa decay rate, FIXa (+)” value came to 0.0085 min⁻¹.

B14: factor VIIIa A2 subunit, D666A (other)
chain: B1 chain with A152S, D294A
As to B14, in assay [1], the “Factor VIIIa decay rate relative to wild type, FIXa (+)” value is 4.83 relative to wild type and the “Factor VIIIa decay rate, FIXa (+)” value was 0.0545 min⁻¹.

B15: factor VIIIa A2 subunit, S650A (other)
chain: B1 chain with A152S, S278A
On to B15, for which, in assay [1], the “Factor VIIIa decay rate relative to wild type, FIXa (+)” value was 2.81 relative to wild type and the “Factor VIIIa decay rate, FIXa (+)” value was found to be 0.0317 min⁻¹.

B16: factor VIIIa A2 subunit, S654A (other)
chain: B1 chain with A152S, S282A
For the molecule B16, in assay [1], the “Factor VIIIa decay rate relative to wild type, FIXa (+)” value is 1.28 relative to wild type and the “Factor VIIIa decay rate, FIXa (+)” value was determined as 0.0145 min⁻¹.

B17: factor VIIIa A2 subunit, R531A (other)
chain: B1 chain with A152S, R159A
B17: in assay [1], the “Factor VIIIa decay rate relative to wild type, FIXa (+)” value was 6.72 relative to wild type and the “Factor VIIIa decay rate, FIXa (+)” value is 0.0758 min⁻¹.
